We go through 1 substance from patent US6444641.

In the experiment the target is serum albumin (UniProt P08835). As to the kind of experiment: cell-based or functional assay.
Sequence of UniProt P08835 (P08835 25-607 limits assumed): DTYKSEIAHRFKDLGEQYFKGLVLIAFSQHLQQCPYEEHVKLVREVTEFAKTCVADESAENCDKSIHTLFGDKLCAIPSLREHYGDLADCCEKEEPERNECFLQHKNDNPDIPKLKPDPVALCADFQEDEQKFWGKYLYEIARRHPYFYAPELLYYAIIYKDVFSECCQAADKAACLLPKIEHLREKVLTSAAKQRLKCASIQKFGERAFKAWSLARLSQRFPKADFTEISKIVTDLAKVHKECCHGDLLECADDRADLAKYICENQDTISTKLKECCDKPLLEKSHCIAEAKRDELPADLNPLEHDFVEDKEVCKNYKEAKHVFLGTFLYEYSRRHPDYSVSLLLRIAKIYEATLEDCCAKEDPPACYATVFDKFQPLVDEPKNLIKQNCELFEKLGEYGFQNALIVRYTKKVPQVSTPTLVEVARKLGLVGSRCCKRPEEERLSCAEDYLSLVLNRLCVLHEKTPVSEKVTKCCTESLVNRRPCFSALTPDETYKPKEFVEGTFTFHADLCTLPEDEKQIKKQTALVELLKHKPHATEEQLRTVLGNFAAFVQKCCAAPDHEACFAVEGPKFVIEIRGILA

On to “B29-N^ε-myristoyl human insulin (from UniProt P01308 90-110; P01308 25-54) (ligand)”, for which the plasma drug levels at 100 minutes after subcutaneous injection (6 nmol/kg) in pigs, by double antibody radioimmunoassay turned out to be 18 fold.
